Assay results reported in PMC7327165 (mBio, 2020).

biological target: full-length monomeric gp120 (clade B, BaL strain) (HIV-1 clade B, strain BaL, UniProt Q2MKA8, strain); test: flow cytometry on cells; conditions: one partner purified

Binder | binding result
N12-i3 mAb (antibody, V domains shown) VH: QVQLVQSGAEVKKPGSSVRVSCKASGGSFSRYTVNWVRQAPGQGLEWMARFIPIFNMPDYAPKFQGRITITADESTSTAYLELSSLTSDDTAVYYCASRQHHEYFQEWGQGTLVTVSS VL: EIVLTQSPGTLSMSPGERATLSCRASRTVSSSNLAWYQQKPGQAPRLLIYDVSSRATGIPDRFSGRGSGTDFTLTISRLEPEDFAVYYCQQYGTSPLTFGGGTKVEIK | binds
A32 mAb (antibody, V domains shown) VH: QVQLQESGPGLVKPSQTLSLSCTVSGGSSSSGAHYWSWIRQYPGKGLEWIGYIHYSGNTYYNPSLKSRITISQHTSENQFSLKLNSVTVADTAVYYCARGTRLRTLRNAFDIWGQGTMVTVSS VL: VLTQPPSASGSPGQSVTISCTGTSSDVGGYNYVSWYQHHPGKAPKLIISEVNNRPSGVPDRFSGSKSGNTASLTVSGLQAEDEAEYYCSSYTDIHNFVFGGGTKLTVL | binds
CH55 mAb (antibody, V domains shown) VH: QVQLVQSGAEVKKPGASVKVSCKASGYIFISYFMHWVRQAPGQGLEWMGIINPSSGDTRYAQKFQGRVTMTRDTSTNTVYMELSSLRSDDTAVYYCARRPGGLERHNWLDPWGQGTLVTVSS VL: not shown | binds
CH54 mAb (antibody, V domains shown) VH: QVQLVQSGPEVKKPGTSMKISCKASGFTFTRSTMQWVRQARGQRLEWIGWIVVGSGNTNYAQKFQERVTITRDMSTSTAYMELSSLRSEDTAVYYCAAAPVGPTSSDYWGQGTLVTVSS VL: DIQMTQSPSSLSASVGDRVTITCRASQSIINYLNWYQQKPGRAPKLLIYAASSLLSGVPSRFSGSGSGTDFTLTISSLQPEDFATYYCQQSYSTPYTFGQGTKLEIK | binds
C11 mAb (antibody, V domains shown) VH: EVQLVESGGGLVKPGGSLRLSCAASGFTFSSYSMNWVRQAPGRGLEWVSSISNTSTYIYYADSVEGRFTLSRDNAKNSLYLQMNSLRAEDTAVYYCARANQHFDWLLSLLGGYHYYGMDVWGQGTTVTVSS VL: not shown | binds
DH677.3 mAb (antibody, V domains shown) VH: QVQLVQSGAEVQKPGASVKVSCKASGYTFASYDINWVRQATGQGLEWMGWMNPKTGNTGYAQKFQGRVTLTRNTSISTAYMELTSLRSEDTAVYYCATYRIIAAVGYRYFQYWGQGTLVTVSS VL: DIQLTQSPSSLSASVGDSVTITCRASQGFGNYLAWYQQRPGKVPEVLIYAATTLQSGVPSRFSGSGSGTDFTLTISSLQPEDVATYYCQKYNSAPFTFGQGTRLEIK | binds

biological target: T1, full-length single-chain gp120BaL-CD4 complex (FLSC) (HIV-1 clade B, BaL (gp120 moiety); CD4 …, UniProt Q2MKA8, strain); test: FRET or BRET + other: fluorescence correlation spectroscopy; conditions: both partners purified
T1 construct: also called full-length single-chain protein

Binder | binding result
C11 Fab (Fab, V domains shown) VH: EVQLVESGGGLVKPGGSLRLSCAASGFTFSSYSMNWVRQAPGRGLEWVSSISNTSTYIYYADSVEGRFTLSRDNAKNSLYLQMNSLRAEDTAVYYCARANQHFDWLLSLLGGYHYYGMDVWGQGTTVTVSS VL: not shown | binds
